Legend:
different cell lines = experiment: Recognition of different cell lines by the antibodies with the FACSCAN instrument; format: cell-based; conditions: FACSCAN analysis of a panel of tumor lines
Description: The hybridomas secreting antibodies recognizing the resistant tissues, and recognizing neither the tumors from the control batch PBS nor the native A549 cell which was used for establishing the tumor in vivo, are cloned and frozen. The antibodies are then produced in ascite liquid, purified, retested in immunohistochemistry before being tested in vivo on cells expressing a surface structure or antigen recognized by the antibodies (these cells were selected beforehand by FACSCAN analysis of a non-exhaustive panel of tumor lines available for each antibody).
Table 6 below as for it, groups the cells recognized by these antibodies (Recognition of the antibodies selected in histology with the FACSCAN instrument, of different cell lines).

BxPC3 cells = experiment: Pancreas xenograft model BxPC3; format: in vivo, athymic "Nude" mice; conditions: 1 mg/dose two times a week; results in FIG. 7
Procedure: 10.10^6 BxPC3 cells are grafted on athymic “Nude” mice. Five days after the grafting, the tumors are measurable and the mice are divided into two batches of six mice with tumors of homogenous size. The mice are either treated with PBS (negative control) or with the antibody 2E11 (1 mg/dose), two times a week. Tumor volume tracking is carried out twice a week.
The results are illustrated in FIG. 7.

Molecule | In vivo model (cells recognized by these antibodies) (different cell lines) | anti-tumoral activity (tumor volume) (BxPC3 cells) | In vivo model (cells recognized by these antibodies) (different cell lines; clone D10)
1A9: monoclonal antibody, heavy chain SEQ ID No. 15, light chain SEQ ID No. 16; hybridoma CNCM I-3613; IgG1 k (antibody, V domains shown, mus musculus, hybridoma CNCM I-3613; IgG1 k) VH: QIQLVQSGPELKKPGETVKISCKASGQTFTNYGMNWVKQAPGKGLKWMGWINTYTGEPTYADDFKGRFAFSLETSASTAYLQINNLKNEDTATYFCARGGYYRYAAYWGQGTLVTVSA VL: DIQMTQSPASLSASVGETVTITCRASGNIHNYLAWYQQKQGKSPQLLVYNAKTLADGVPSRFSGSGSGTQYSLKINSLQPEDFGCYFCQHFWTTPYTFGGGTKLELI | HepG2/H69/LnCap |  | 
3C11: monoclonal antibody, heavy chain SEQ ID No. 31, light chain SEQ ID No. 32; hybridoma CNCM I-3614; IgM k (antibody, V domains shown, mus musculus, hybridoma CNCM I-3614; IgM k) VH: QVQLKESGPGLVAPSQSLSITCTVSGFSLSSYGVHWVRQPPGKGLEWLGVIWVGGTTNFKSALMSRLSISKDNSKSQVFLKMNSLQTDDTAMYYCARERPYGNPLVDWGQGTLVTVSA VL: DIVMTQSHKFMSTSVGDRVSITCKASQDVSTAVAWYQQKPGQSPKLLIYSASYRYTGVPDRFTGSGSGTDFTFTISSVQAEDLAVYYCQQHYSNPRTFGGGTKLEIK | Colo205 |  | 
2E11: monoclonal antibody, heavy chain SEQ ID No. 23, light chain SEQ ID No. 24; hybridoma CNCM I-3615; IgG1 k (antibody, V domains shown, mus musculus, hybridoma CNCM I-3615; IgG1 k) VH: EVQLQQSGAEVVKPGASVKLSCTASGFNIKDTYMHWVKQRPEQGLEWIGRIDPANGNTKSDPKFQGKAIKTADTSSNTAYLQLSSLTSEDTAVYYCTSGYTNYVWFTYWGQGTLVTVSA VL: DIVMSQSPSSLAVAAGEKVTMSCKASQSLLNSRTRKNYLAWYQQKPGQSPKLLIYWASTRESGVPDRFTGSGSGTDFSLTISSVQAEDLAVYYCKQSYNLYTFGGGTKLEIK | HT29/BxPC3/H69 | validate the functional activity | 
1A6: monoclonal antibody, heavy chain SEQ ID No. 7, light chain SEQ ID No. 8; hybridoma CNCM I-3612; IgM k (antibody, V domains shown, mus musculus, hybridoma CNCM I-3612; IgM k) VH: EVQLQQSGPELVKPGASVKISCKTSGYTFTEYTLHWVKQSHGKSLEWIGGIDPNNGGTSYNQKFKGKATLTVDKSSSTAYMELRSLTSEDSAVYLCARSNSYYFDYWGQGTTLTVSS VL: DIQMTQTTSSLSASLGDSVTISCRARQDIRNFLNWYQQRPDGTVKLLIYYTSRLHSGVPSRFSGSGSGTDYSLTISNLDQEDVATYFCQQGNTLPFTFGSGTKLEIK |  |  | LnCap/HT29
3G7: monoclonal antibody, heavy chain SEQ ID No. 39, light chain SEQ ID No. 40; hybridoma CNCM I-3616; IgM (antibody, V domains shown, mus musculus, hybridoma CNCM I-3616; IgM) VH: QVQLQQSGPELVRPGTSVKISCKASGYTFTNYWLGWVKQRPGHGLEWIGDIFPGGIYTNYNEKIKGEATLTADTSSSTAYLQLSSLTSEDSFVYFCARFDDFDPFFASWGQGTLVTVSA VL: DVLMTQTPLSLPVSLGDQASISCRSSQTIVHSNGNTYLEWYLQKPGQSPKLLIYKVSNRFSGVPDRFSGSGSGTDFTLNISRVEAEDLGIYYCFQSSRVPYTFGGGTKLEIK | DU145 |  | 

From patent US8241646B2, “Method for generating active antibodies against a resistance antigen, antibodies obtained by said method and their uses” (Pierre Fabre Medicament, priority 2006, dated 2012)
